These are literature values, as cited in US20250341526A1, “NOVEL DYES” (Quantum-Si Incorporated, priority 2024, published 2025).

The chains are these.
B1: PS555: ClpS amino acid recognition protein, SEQ ID NO: 69 (protein, listed as Planctomycetes bacterium)
chain: MADSAQTGVAEPIQETLRRRKLRDDRRPKRQPPYHVILWNDNDHTYAYVVVMLMQLFGYPAEKGYQLASEVDTQGRAVVLTTTKEHAELKRDQIHAYGKDGLIEKCKGSMWATIEPAPGE
B2: PS560: ClpS amino acid recognition protein, SEQ ID NO: 74 (protein, listed as Planctomycetes bacterium)
chain: MTETITTPAERTQTQAEPRSDRAWLWNVVLLDDDEHTYEYVIRMLHTLFGMPVERAFRLAEEVDARGRAVVLTTHKEHAELKRDQVHAFGKDALIASCAGSMSAVLEPAECGSDDED
B3: PS562: ClpS amino acid recognition protein, SEQ ID NO: 76 (protein, listed as Rubripirellula amarantea)
chain: MSDQQSMVAEPEVVVHTQDEKKLEKQNKRKKQPRYNVVLWDDTDHSYDYVVLMMKQLFHHPIETGFQIAKQVDKGGKAICLTTTMEHAELKRDQIHAFGKDDLIARCTGSMSATIEPVPE
B4: PS554: ClpS amino acid recognition protein, SEQ ID NO: 68 (protein, listed as Planctomycetia bacterium)
chain: MSDSASATVEVQADPPADATARSQPTPARSTGSKPKRQPRYHVVLWNDDDHTYEYVIAMLRRLFGIEPEKGFRIAEEVDQSGRAVVLTTTREHAELKRDQIHAFGADRLLARSKGSMSASIEPEA
B5: PS546: ClpS amino acid recognition protein, SEQ ID NO: 60 (protein, listed as Planctomycetia bacterium)
chain: MSDTITLPGRPEVERDERTRRQPPYNVILHNDDDHTFEYVIVMLNQLFGYPPEKGYEMAKEVHLNGRVIVLTTSKEHAELKRDQIHAFGPDPFSSKDCKGSMSASIEPAY
B6: PS547: ClpS amino acid recognition protein, SEQ ID NO: 61 (protein, listed as Gemmataceae bacterium)
chain: MGFPTDFRQSIEISTPLGSQQPRFSNASSEPALADPVLVINPRIQPRYHVILLNDDDHTYRYVIEMMLIVFGHPPEKGFLIAKEVDKAGRAICLTTSLEHAEFKQEQVHAYGADPYFGPKCKGSMTAVLEPAE
B7: PS374: ClpS amino acid recognition protein, SEQ ID NO: 7 (protein)
chain: MRWEDPLAAEPVTPGVAPVVEEETDAAVETPWRVILYDDDIHTFEEVILQLMKATGCTPEQGERHAWTVHTRGKDCVYQGDFFDCFRVQGVLREIQLVTEIEG
B8: PS559: ClpS amino acid recognition protein, SEQ ID NO: 73 (protein, listed as Planctomycetaceae bacterium)
chain: MNQAAISPNPDIKPNPSTHKKRASQRQPRYHVILWNDNDHTYHYVVTMLQKLFGHPPRTGIKMATEVDKKGKVIVLTTSREHAELKRDQIHAFGADKLIRRSKGAMAASIEPES
B9: PS552: ClpS amino acid recognition protein, SEQ ID NO: 66 (protein)
chain: MSKTSTLPEVESESAQKLKYQPPYHVILLNDDDHSYVYVITMLKELFGHPEQKGYQLADAVDKQGRAIVFTTTREHAELKQEQIHAYGPDPTIPRCKGAMTAVIEPAE
modifications: Fimbriiglobus ruber
B10: PS563: ClpS amino acid recognition protein, SEQ ID NO: 77 (protein, listed as Acidobacteria bacterium)
chain: MSSRSATAYPEVEDDTSDQLQPLYHVILLNDEDHTYDYVIEMLQKIFGFPESKAFSHAVEVDTKGTTILLTCDLEQAERKRDLIHSYGPDWRLPRSLGSMAAVVEPAAG
B11: PS548: ClpS amino acid recognition protein, SEQ ID NO: 62 (protein, listed as Gemmataceae bacterium)
chain: MSDTITLPEEKTDVRTKRQPPYHVILLNDDDHTYQYVIYMLQTLFGHPPETGFKMAQEVDKTGRVIVDTTSLERAELKRDQIHAFGPDPYIERCKGSMSAMIEPSE
B12: PS557: ClpS amino acid recognition protein, SEQ ID NO: 71 (protein, listed as Planctomycetia bacterium)
chain: MPTAASATESAIEDTPAPARPEVDGRTKPKRQPRYHVVLWNDDDHTYQYVVVMLQSLFGHPPERGYRLAKEVDTQGRVIVLTTTREHAELKRDQIHAFGYDRLLARSKGSMKASIEAEE
B13: PS565: ClpS amino acid recognition protein, SEQ ID NO: 79 (protein, listed as Aquisphaera sp.)
chain: MSEFDHEHSGDTSVADPIVTTKTAPKPQKHAENETETRRQPPYNVIILNDEEHTFDYVIELLCKVFRHSLATAQELTWRIHLTGRAVVLTTHKELAELKRDQVLAYGPDPRMSVSKGPLDCFIEPAPGG
B14: PS549: ClpS amino acid recognition protein, SEQ ID NO: 63 (protein, listed as Planctomycetes bacterium)
chain: MSESITTLPKKSRRLKEEEEQKTKRQPPYNVILLNDDDHTFEYVIFMLQKLFGHPPERGMQMAKEVHTTGRVIVMTTALELAELKRDQIHAFGPDPLIDRCKGSMSATIEPAPI
B15: PS566: ClpS amino acid recognition protein, SEQ ID NO: 80 (protein, listed as Planctomycetaceae bacterium)
chain: MSSPSSLDDVQVSTSRAKPANETRTRKQPPYAVIVENDDHHTFLYVIEALMKVCGHAPEKGFVLAQQIHTQGKAMVWSGTLELAELKRDQLRGFGPDNYAPRPVTFPLGVTIEPLP
B16: PS553: ClpS amino acid recognition protein, SEQ ID NO: 67 (protein, listed as Planctomycetes bacterium)
chain: MPASASAVTEPPVSLPEAAAPRPKDRPKRQPRYHVILWNDDDHTYQYVVAMLRQLFGHPPEKGFTLAKQVDKDGRVVVLTTTKEHAELKRDQIHAFGADRLLARSKGSMSASIEPEASTG
B17: PS435: ClpS amino acid recognition protein, SEQ ID NO: 58 (protein)
chain: MTLSVALGPDTQESTQTGTAVSTDTLTAPDIPWNLVIWNDPVNLMSYVSYVFQSYFGYSETKANKLMMEVHKKGRSIVAHGSKEQVEQHAVAMHGYGLWATVEKATGGNSGGGKSGGPGKGKGKRG
B18: PS550: ClpS amino acid recognition protein, SEQ ID NO: 64 (protein, listed as Planctomycetes bacterium)
chain: MPTFTEPEVVNDTRILPPYHVILLNDDDHTYEYVIHMLQTLFGHPQERGFQLAVEVDKKGKAIVFTTSKEHAEFKRDQIHAFGADPLSSKNCKGSMSAVIEPSF
B19: PS567: ClpS amino acid recognition protein, SEQ ID NO: 81 (protein, listed as Planctomycetaceae bacterium)
chain: MADYEDAGEDALEDDFDHGTVTVAPQKPEPKKQSENKRQANRQPRYNVLLWDSEDHTFEYVEKMLRELFGHIKKQCQIIAEQVDQEGRAVVLTTTLEHAELKRDQIHAYGKDQLEGSKGSMWSTIEAVD
B20: PS551: ClpS amino acid recognition protein, SEQ ID NO: 65 (protein, listed as Rubrobacter indicoceani)
chain: MPSAAPAKPKTKRQSRTQGMPPYNVVLLDDDDHTYGYVIEMLNKVFGHPPEKGFELATEVDKNGRVIVMTTNLEVAELKRDEVHAFGPDPLMPRSKGSMSAVVERAG
B21: PS558: ClpS amino acid recognition protein, SEQ ID NO: 72 (protein, listed as Planctomycetia bacterium)
chain: MTATTADPDRTTAEKTTKKARRSGQPKRQPRYHVILWNDNDHTYQYVVAMLQQLFGHPATTGLKLATEVDRTGRAVILTTTREHAELKRDQIHAFGADRLLARSKGAMSASIEPEAE
B22: PS556: ClpS amino acid recognition protein, SEQ ID NO: 70 (protein, listed as Blastopirellula marina)
chain: MGDSNTSVAEPGEVTVVTTKPAPKKAKPKRQPKYHVVLWNDDDHTYEYVILMMHELFGHPVEKGFQIAKTVDADGRAICLTTTKEHAELKRDQIHAYGKDELIARCRGSMSSTIEPEC
B23: PS564: ClpS amino acid recognition protein, SEQ ID NO: 78 (protein, listed as Planctomycetes bacterium)
chain: MFEEVVSVAVAEPKTKKQSRTKPKRQPPYHVILWDDTDHTFDYVIKMMGELFRMPREKGYQLAKEVDTSGRAICMTTTLELAELKRDQIHAFGRDDASAHCKGSMSATIEPAEG
B24: PS545: ClpS amino acid recognition protein, SEQ ID NO: 59 (protein, listed as Planctomycetales bacterium)
chain: MSEPMTLPAIPQPRLKERTQRQPPYNVILLNDDDHSYEYVIAMLQVLFGYPREKGYQMAKEVDSTGRVILLTTTREHAELKQEQIHAFGPDPLMARCQGSMTAVIEPAV
B25: PS561: ClpS amino acid recognition protein, SEQ ID NO: 75 (protein, listed as Roseimaritima sp.)
chain: MAELQTAVVEPTTRPEQDEKQSQSRPKRQPRYNVILWDDPDHSYDYVIMMLKELFGHPRQRGHQMAEEVDTTGRVICLTTTMEHAELKRDQIHAYGSDEGITRCKGSMSASIEPVPE

The data set relates to amino acid at a terminal position of a polypeptide. As to conditions: Table 1, ClpS proteins; amino acid at terminal position; inferred from literature and/or demonstrated by the inventors; cited from earlier work.
Turning to B1, the “Binding Pref.” value is on record as “I, L, V”.
For B2, the “Binding Pref.” value was “I, L, V”.
For B3, the “Binding Pref.” value is “I, L, V”.
Consider B4, for which the “Binding Pref.” value is recorded as “I, L, V”.
With B5, the “Binding Pref.” value was “I, L, V”.
B6: the “Binding Pref.” value is given as “I, L, V”.
Consider B7, for which the “Binding Pref.” value was “F, Y, W, L”.
For the molecule B8, the “Binding Pref.” value is listed as “I, L, V”.
In the case of B9, the “Binding Pref.” value is given as “I, L, V”.
In the case of B10, the “Binding Pref.” value is “I, L, V”.
As to B11, the “Binding Pref.” value is “I, L, V”.
Regarding B12, the “Binding Pref.” value was “I, L, V”.
For B13, the “Binding Pref.” value is given as “I, L, V”.
Turning to B14, the “Binding Pref.” value is listed as “I, L, V”.
In the case of B15, the “Binding Pref.” value is on record as “I, L, V”.
With B16, the “Binding Pref.” value is listed as “I, L, V”.
In the case of B17, the “Binding Pref.” value is on record as “F, Y, W, L”.
For B18, the “Binding Pref.” value is recorded as “I, L, V”.
Take B19: the “Binding Pref.” value is “I, L, V”.
As to B20, the “Binding Pref.” value is “I, L, V”.
For B21, the “Binding Pref.” value is given as “I, L, V”.
As for B22, the “Binding Pref.” value is listed as “I, L, V”.
Take B23: the “Binding Pref.” value is listed as “I, L, V”.
Turning to B24, the “Binding Pref.” value was “I, L, V”.
For B25, the “Binding Pref.” value is given as “I, L, V”.
